Data as given in patent US20180155413A1 (AstraZeneca / MedImmune, published 2018).
Like-named read-outs stand apart in the source and are kept apart here.

What was measured:
Assay in all cases: cell-based or functional assay
[1] = molecular target: HA of A/Victoria/3/75 (H3N2) (influenza A virus)
[2] = molecular target: HA of A/Shan dong/9/93 (H3N2) (influenza A virus)
[3] = molecular target: HA of A/Solomon Island/3/2006 (H1N1) (influenza A virus)
[4] = molecular target: HA of B/Sichuan/379/99 (yamagata) (influenza B virus)
[5] = molecular target: HA of A/Beijing/262/95 (H1N1) (influenza A virus)
[6] = molecular target: HA of ca A/Panama/2007/99 (H3N2) (influenza A virus)
[7] = molecular target: HA of B/Hong Kong/330/2001 (victoria) (influenza B virus)
[8] = molecular target: HA of B/Florida/4/2006 (yamagata) (influenza B virus)
[9] = molecular target: HA of A/Hong Kong/8/68 (H3N2) (influenza A virus)
[10] = molecular target: HA of A/California/07/2009 (H1N1) (influenza A virus)
[11] = molecular target: T1, HA of A/Wilson Smith N/33 (H1N1) (influenza A virus, UniProt P03454 18-565)
[12] = molecular target: HA of ca B/Beijing/243/97 (victoria) (influenza B virus)
[13] = molecular target: HA of B/Ohio/1/2005 (victoria) (influenza B virus)
[14] = molecular target: HA of B/Yamanashi/166/98 (yamagata) (influenza B virus)
[15] = molecular target: HA of B/Malaysia/2506/2004 (victoria) (influenza B virus)
[16] = molecular target: HA of A/Victoria/3/75 (H3N2) (influenza A virus); remark: listed apart in the source
[17] = molecular target: HA of A/Puerto Rico/8/34 (H1N1) (influenza A virus, UniProt P03452 18-565)
[18] = molecular target: HA of A/Shan dong/9/93 (H3N2) (influenza A virus); remark: listed apart in the source
[19] = molecular target: HA of A/Washington/24/2012 (H1N1) (influenza A virus)
[20] = molecular target: HA of A/Palau/6759/2014 (H3N2) (influenza A virus)
[21] = molecular target: HA of A/Shenzhen/227/95 (H1N1) (influenza A virus)
[22] = molecular target: HA of A/Solomon Island/3/2006 (H1N1) (influenza A virus); remark: listed apart in the source
[23] = molecular target: HA of A/California/7/2004 (H3N2) (influenza A virus)
[24] = molecular target: HA of ca A/Perth/16/2009 (H3N2) (influenza A virus)
[25] = molecular target: HA of A/Brisbane/10/2010 (H1N1) (influenza A virus)
[26] = molecular target: HA of ca A/South Dakota/6/2007 (H1N1) (influenza A virus)
[27] = molecular target: HA of A/Beijing/262/95 (H1N1) (influenza A virus); remark: listed apart in the source
[28] = molecular target: HA of A/AmericanSomoa/4786/2013 (H3N2) (influenza A virus)
[29] = molecular target: HA of A/Bolivia/559/2013 (H1N1) (influenza A virus)
[30] = molecular target: HA of ca A/Panama/2007/99 (H3N2) (influenza A virus); remark: listed apart in the source
[31] = molecular target: HA of A/Victoria/361/2011 (H3N2) (influenza A virus)
[32] = molecular target: HA of A/Switzerland/9715293/2013 (H3N2) (influenza A virus)
[33] = molecular target: HA of A/Hong Kong/8/68 (H3N2) (influenza A virus); remark: listed apart in the source
[34] = molecular target: HA of ca A/Wuhan/359/95 (H3N2) (influenza A virus)
[35] = molecular target: HA of ca A/Sydney/5/97 (H3N2) (influenza A virus)
[36] = molecular target: HA of A/Wisconsin/67/2005 (H3N2) (influenza A virus)
[37] = molecular target: T1, HA of A/Wilson Smith N/33 (H1N1); remark: listed apart in the source
[38] = molecular target: HA of A/Minnesota/11/2010 (H3N2v) (influenza A virus)
[39] = molecular target: HA of ca A/Brit. Columbia/CN-6/04 (H7N3-LP) (influenza A virus)
[40] = molecular target: HA of A/Texas/50/2012 (H3N2) (influenza A virus)
[41] = molecular target: HA of ca A/Japan/57 (H2N2) (influenza A virus)

T1 sequence (P03454 18-565 limits assumed): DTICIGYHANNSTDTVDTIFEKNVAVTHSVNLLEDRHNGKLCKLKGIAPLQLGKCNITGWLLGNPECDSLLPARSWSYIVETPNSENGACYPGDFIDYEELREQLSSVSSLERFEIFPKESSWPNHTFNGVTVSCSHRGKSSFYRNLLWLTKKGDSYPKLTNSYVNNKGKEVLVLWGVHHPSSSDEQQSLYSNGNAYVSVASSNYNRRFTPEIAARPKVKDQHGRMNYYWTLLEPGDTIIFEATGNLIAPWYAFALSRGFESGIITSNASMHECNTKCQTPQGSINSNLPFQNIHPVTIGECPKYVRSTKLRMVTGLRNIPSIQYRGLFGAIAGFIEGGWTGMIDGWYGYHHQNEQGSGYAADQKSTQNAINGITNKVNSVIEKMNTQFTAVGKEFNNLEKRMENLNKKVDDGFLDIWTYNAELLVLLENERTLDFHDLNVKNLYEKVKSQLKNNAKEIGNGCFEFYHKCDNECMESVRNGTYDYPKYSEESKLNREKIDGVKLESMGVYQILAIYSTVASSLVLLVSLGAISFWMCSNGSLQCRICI
HA of A/Puerto Rico/8/34 (H1N1), sequence (P03452 18-565 limits assumed): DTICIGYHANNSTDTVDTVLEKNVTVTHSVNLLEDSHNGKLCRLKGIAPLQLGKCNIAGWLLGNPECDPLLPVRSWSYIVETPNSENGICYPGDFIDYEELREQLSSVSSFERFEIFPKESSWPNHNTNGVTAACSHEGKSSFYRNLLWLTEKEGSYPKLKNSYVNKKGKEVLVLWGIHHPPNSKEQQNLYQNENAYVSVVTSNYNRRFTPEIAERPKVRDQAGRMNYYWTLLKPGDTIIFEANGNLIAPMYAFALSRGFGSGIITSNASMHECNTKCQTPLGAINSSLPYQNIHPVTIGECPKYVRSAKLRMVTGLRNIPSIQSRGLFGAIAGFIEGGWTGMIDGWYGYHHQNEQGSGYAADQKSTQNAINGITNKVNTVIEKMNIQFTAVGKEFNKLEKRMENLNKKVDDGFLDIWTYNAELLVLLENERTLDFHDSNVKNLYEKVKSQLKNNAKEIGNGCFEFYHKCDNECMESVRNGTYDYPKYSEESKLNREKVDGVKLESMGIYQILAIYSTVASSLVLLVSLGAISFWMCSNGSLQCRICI

B1: GL20/39 BiS4 100/44 (bispecific antibody)
light: DIQMTQSPSSLSASVGDRVTITCRTSQSLSSYTHWYQQKPGKAPKLLIYAASSRGSGVPSRFSGSGSGTDFTLTISSLQPEDFATYYCQQSRTFGQGTKVEIKRTVAAPSVFIFPPSDEQLKSGTASVVCLLNNFYPREAKVQWKVDNALQSGNSQESVTEQDSKDSTYSLSSTLTLSKADYEKHKVYACEVTHQGLSSPVTKSFNRGEC
heavy: not shown
[1]
  Neutralization (IC50): 15.9 nM
[2]
  Neutralization (IC50): 30.3 nM
[3]
  Neutralization (IC50): 4.7 nM
[4]
  Neutralization (IC50): 7.8 nM
[5]
  Neutralization (IC50): 11.9 nM
[6]
  Neutralization (IC50): 37.3 nM
[7]
  Neutralization (IC50): 75.8 nM
[8]
  Neutralization (IC50): 3.6 nM
[9]
  Neutralization (IC50): 6 nM
[10]
  Neutralization (IC50): 20.6 nM
[11]
  Neutralization (IC50): 16.3 nM
[12]
  Neutralization (IC50): 44.3 nM
[13]
  Neutralization (IC50): 16.5 nM
[14]
  Neutralization (IC50): 1.2 nM
[15]
  Neutralization (IC50): 25.8 nM
[16]
  Neutralization (IC50): 5.2 nM
[17]
  Neutralization (IC50): 18.6 nM
[18]
  Neutralization (IC50): 18.3 nM
[19]
  Neutralization (IC50): 2.1 nM
[20]
  Neutralization (IC50): 4.6 nM
[21]
  Neutralization (IC50): 7.9 nM
[22]
  Neutralization (IC50): 4.4 nM
[23]
  Neutralization (IC50): 10.5 nM
[24]
  Neutralization (IC50): 4 nM
[25]
  Neutralization (IC50): 9.8 nM
[26]
  Neutralization (IC50): 6.8 nM
[27]
  Neutralization (IC50): 10.6 nM
[28]
  Neutralization (IC50): 0.8 nM
[29]
  Neutralization (IC50): 0.9 nM
[30]
  Neutralization (IC50): 28.5 nM
[31]
  Neutralization (IC50): 5.2 nM
[32]
  Neutralization (IC50): 0.9 nM
[33]
  Neutralization (IC50): 3.3 nM
[34]
  Neutralization (IC50): 16.7 nM
[35]
  Neutralization (IC50): 22.6 nM
[36]
  Neutralization (IC50): 10.3 nM
[37]
  Neutralization (IC50): 9.5 nM
[38]
  Neutralization (IC50): 17.1 nM
[39]
  Neutralization (IC50): 18.3 nM
[40]
  Neutralization (IC50): 3.1 nM
[41]
  Neutralization (IC50): 5.3 nM

B2: GL20 IgG (antibody, V domains shown)
VH: QVQLQQSGPGLVKPSQTLSLTCAISGDSVSSYNAVWNWIRQSPSRGLEWLGRTYYRSGWYNDYAESVKSRITINPDTSKNQFSLQLNSVTPEDTAVYYCARSGHITVFGVNVDAFDMWGQGTMVTVSS
VL: DIQMTQSPSSLSASVGDRVTITCRTSQSLSSYTHWYQQKPGKAPKLLIYAASSRGSGVPSRFSGSGSGTDFTLTISSLQPEDFATYYCQQSRTFGQGTKVEIK
[1]
  Neutralization (IC50): 12.9 nM
[2]
  Neutralization (IC50): 19.2 nM
[3]
  Neutralization (IC50): 4.4 nM
[4]
  Neutralization (IC50): > 1000 nM
[5]
  Neutralization (IC50): 8.3 nM
[6]
  Neutralization (IC50): 46.9 nM
[7]
  Neutralization (IC50): > 1000 nM
[8]
  Neutralization (IC50): > 1000 nM
[9]
  Neutralization (IC50): 7 nM
[10]
  Neutralization (IC50): 18.6 nM
[11]
  Neutralization (IC50): 13 nM
[12]
  Neutralization (IC50): > 1000 nM
[13]
  Neutralization (IC50): > 1000 nM
[14]
  Neutralization (IC50): > 1000 nM
[15]
  Neutralization (IC50): > 1000 nM
[16]
  Neutralization (IC50): 3 nM
[17]
  Neutralization (IC50): 10 nM
[18]
  Neutralization (IC50): 21.8 nM
[19]
  Neutralization (IC50): 1.4 nM
[20]
  Neutralization (IC50): 6.8 nM
[21]
  Neutralization (IC50): 9.3 nM
[22]
  Neutralization (IC50): 4.3 nM
[23]
  Neutralization (IC50): 14.2 nM
[24]
  Neutralization (IC50): 4.2 nM
[25]
  Neutralization (IC50): 10.5 nM
[26]
  Neutralization (IC50): 10.8 nM
[27]
  Neutralization (IC50): 10.8 nM
[28]
  Neutralization (IC50): 0.9 nM
[29]
  Neutralization (IC50): 0.9 nM
[30]
  Neutralization (IC50): 44.2 nM
[31]
  Neutralization (IC50): 5.7 nM
[32]
  Neutralization (IC50): 0.3 nM
[33]
  Neutralization (IC50): 3 nM
[34]
  Neutralization (IC50): 16.3 nM
[35]
  Neutralization (IC50): 32.1 nM
[36]
  Neutralization (IC50): 10.7 nM
[37]
  Neutralization (IC50): 7.6 nM
[38]
  Neutralization (IC50): 11.1 nM
[39]
  Neutralization (IC50): 7.4 nM
[40]
  Neutralization (IC50): 4.8 nM
[41]
  Neutralization (IC50): 5 nM
